Source: the supplement of paper PMC9170038

Tested on: MS2 coat protein
Test: apparent KD of MS2 coat protein; designed switch direction (-1 OFF switch, 1 ON switch): 1; higher = weaker reporter binding
In short: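 On Illumina chips, designed RNA switches with common flanks were made by stalled E. coli RNA polymerase. Titrations with SNAP-549-labelled MS2 coat protein, doubling from 0.7 or 1.5 nM to 3 µM, were done with no input, with 200 uM small-molecule ligand, or with an oligonucleotide input. Apparent KD is the median per design over clusters, from curve fits of normalised cluster fluorescence.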

[1] = input ligand: microRNA oligo, concentration not stated
[2] = Eterna round: R95, input ligand: FMN 200 uM
[3] = Eterna round: R95, input ligand: microRNA oligo, concentration not stated
[4] = Eterna round: R95, input ligand: none

Sequence | apparent KD of MS2 coat protein (input ligand: FMN 200 uM) [nM] | apparent KD of MS2 coat protein [1] [nM] | apparent KD of MS2 coat protein (input ligand: none) [nM] | apparent KD of MS2 coat protein [2] [nM] | apparent KD of MS2 coat protein [3] [nM] | apparent KD of MS2 coat protein [4] [nM]
GGCCUCUGUCAAGGAUAUGCUACCGUUUCGGUAGCAGAAGGUGAUCACAUGCGGGUCACCCAUGUUUAGGCCCUCUGGCCCGCC (Eterna round: R96, puzzle: Same State NG 1) | 19.1 | 10.2 | 18.6 | – | – | –
GGCAGGUGCAGGCUUGCUUGCACCUGGAAACAUGAGGAUCACCCAUGUUUGGGACAAGCUUUGCUCUUCGUCUUUUC [JL ViennaUCT Isusreraar mod 5] (puzzle: Sensor for hsa-mir-208a) | – | – | – | 43.7 | 55.1 | 54.2
AGCUAUUACGAAGGAUAUUCUGACAUGAGGAUCACCCAUGUCUUCAUGAUUUAUUGUGAUCACGUGAAGAAGGUUGUACUAACA [SameState NG2 #26] (Eterna round: R96, puzzle: Same State NG 2) | 66.4 | 72.2 | 72.2 | – | – | –
GCUAGUAUUAUUGUCAACAUGAGGAUCACCCAUGUAUGUUGGCAGGAUAUCGUUUGCUUUGCAAACGAGAAGGGCUAAACUAGC [JL SSNG3 1.04] (Eterna round: R96, puzzle: Same State NG 3) | 61.2 | 145 | 231 | – | – | –
UAAUAAAAGGAUAUACAUGAGGAUCACCCAUGUCCGUCUGCCAAGGAUAUCUAGGAUCAAGCAGCAGAGAAGGUGGCACGCCAC [Eternabot solution 35] (Eterna round: R96, puzzle: Same State NG 3) | 22.3 | 17.2 | 18.3 | – | – | –
CCGUAGAUGGAAGGAUAUGGAGCCUUAUUGGCUCCAGAAGGUUCAAUACAUGAGGAUCACCCAUGUUCGGCGGUCAAUAGACCG [Eli NG1ss - 81] (Eterna round: R96, puzzle: Same State NG 1) | 26.9 | 32 | 66.6 | – | – | –
UCGUCCUCGUGCUAGGAUAUCCAUCGUAAAACAUGAGGAUCACCCAUGUAGAAAUGCGCCUACGAGGAGAAGGAGCGAUGUGGAU [Velemageer] (Eterna round: R96, puzzle: Same State 2) | – | 14 | – | – | – | –
GGAGCCGAUACUGAGGAUAUUCAUAUUAAAACAUGAGGAUCACCCAUGUAGGCCAGAAGGCCUUGGGAGAAGGCAGAUCGGCUCC [Biseusra - 4] (Eterna round: R96, puzzle: Same State 2) | 21 | 207 | 358 | – | – | –
GAGUAGUUGGGAGGAUAUCGAUUGUUAUAGAAUCGAGAAGGUUUUAACAUGAGGAUCACCCAUGUAGGACUAUUCCUGUGUAUC [Parity 73 - Jieux - Same State NG 1] (Eterna round: R96, puzzle: Same State NG 1) | 127 | 68.5 | 107 | – | – | –
AGGCGGAUAUCACAGGAUAUGUGCGCGUUCACAUGAGGAUCACCCAUGUAAAGGACGAGCCAAAAGCAGAAGGGUGACCACGCGA [Aedorlebe] (puzzle: Same State 2) | – | – | – | 15.3 | 14.8 | 25.4
AGAUCAUGACGAGGAUAUGGAACAUGAGGAUCACCCAUGUAUGUUCCAUAACGCGAAUGACGAAUCCAGAAGGCGUCGUGGUCA [JL SSNG2 1.10] (Eterna round: R96, puzzle: Same State NG 2) | 15.6 | 112 | 168 | – | – | –
ACAUGAGAGUGAGGAUAUGGUGUACCUACAUGUGACAUGAGGAUCACCCAUGUGGUAAGUAUGACUCAGAAGGCACAGAUAUGU [Equivalance 77 - Jieux - Same State NG 2] (Eterna round: R96, puzzle: Same State NG 2) | 16.2 | 59.4 | 103 | – | – | –
UAUCCAUAGAUAGGAUAUCAGUAUACAUGAGGAUCACCCAUGUUAUAUUUGGUUUUAAUUUAGUCUGAGAAGGAUCUUGAUGAA [SameState NG2 #2] (Eterna round: R96, puzzle: Same State NG 2) | 14.7 | 11.9 | 15.3 | – | – | –
AACAUACAUGAGGAUCACCCAUGUUCCGGCAGGACAGGAUAUACAUCGAAAGUGUUAUAAGUAGAAGGGUCAUAAA [JR_SS001_Sub012] (Eterna round: R96, puzzle: Same State 1) | 63.4 | 56.6 | 79.8 | – | – | –
ACAUGAGGAUCACCCAUGUAUGCUCAGGAAACUGUGCAACGUGAGGAUAUGGAUCCUAAUUGGAUCCAGAAGGCAUGAAUUAUU [Fiskers NG3ss - 23] (Eterna round: R96, puzzle: Same State NG 3) | 41.5 | 170 | 418 | – | – | –
UUGCUCGUGUGAGGAUAUGCAGCCGUUUCGGCUGCAGAAGGUACUAUAAUACAUGAGGAUCACCCAUGUCUCUGUUGUUUGGUG [salish99_SSNG1_r04_930] (Eterna round: R96, puzzle: Same State NG 1) | 69.7 | 49.4 | 63.7 | – | – | –
GGAAUAUGAUGUUACAUGAGGAUCACCCAUGUAGUGACAACUAAGGAUAUCUGAAAAGAAGGAGAGGAGAAGGUAGGAUCAUAA [AK SSNG3-V2-14.1] (Eterna round: R96, puzzle: Same State NG 3) | 25.7 | 23.1 | 36 | – | – | –
UGAAUAGUUACAGGAUAUCAUGCGAAAAUUGCGUGAGAAGGGUGGGUGUUGUGCGCAAAGUGCUACAUGAGGAUCACCCAUGUU [SameState NG1 #39] (Eterna round: R96, puzzle: Same State NG 1) | 278 | 23.1 | 277 | – | – | –
GUCGGUCUGUCGUGCUGUGGUGAUAGUUAACAUGAGGAUCACCCAUGUUGCUUUCGGGUCGUUGGGAGUUUUUUUCG [Modxample 121 - Jieux - Sensor for bsa-mir-208a] (Eterna round: R96, puzzle: Sensor for hsa-mir-208a) | 63.1 | 43.9 | 64 | – | – | –
CCGGUACAUGAGGAUCACCCAUGUUGCGGCAGGACAGGAUAUGGGCGAGAAUAUGUAGGCCCAGAAGGGUCAUCAC [Qure] (puzzle: Same State 1) | – | – | – | 24.1 | 42.1 | 38.9
ACAAGCUUUUCUGUAUUGAAAGGUGGGAUACAUGAGGAUCACCCAUGUUUUUUUGUUUAUUUUUUUCCUCGUCUUAU [JR_SHM208A_Sub088] (Eterna round: R96, puzzle: Sensor for hsa-mir-208a) | 46 | 36.5 | 37.2 | – | – | –
ACGCAGCUGGGUGAGGAUAUCGGUGGUACUACAUGAGGAUCACCCAUGUCCGAAGCUCGGACCUCCGAGAAGGCGCCCGGCUGCG [Soinraesar Omei Mod 3] (puzzle: Same State 2) | – | – | – | – | 184 | –
AGCUAUUAAUCAGGAUAUGGUCACAUGAGGAUCACCCAUGUAACGAUGAUAUAAUGUGGUCAAGACUAGAAGGGAUUGCUAACA [SameState NG2 #66] (Eterna round: R96, puzzle: Same State NG 2) | 169 | 221 | 191 | – | – | –
